Assay results reported in the supplement of paper PMC7125110.
± gives the standard error. For part of these data: This sample holds only a part of the variants without activity.

B1: glmS ribozyme (parent)
chain: AUAAAAGCGCCAGAACUACAGAAAUGUAGUUGACGAGGAGGAGGUUUAUCGAAUUUUCGGCGGAUGCCUCCAAA

Experiments:
Settings in all cases: with glucosamine-6-phosphate
glucosamine-6-phosphate [1] = variants of: B1; experiment: kcat; higher = faster cleavage; RNA array
Procedure, shortened: (§1)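 Barcoded ribozyme variants were transcribed in situ on sequenced MiSeq chips by E. coli RNA polymerase. At 37 °C, a hybridised Cy3 probe tracked them while glucosamine-6-phosphate (40 μM to 10 mM) in HEPES/KCl/Mg(OAc)2 buffer flowed in and tiles were imaged over ~14 h. Per-tile medians of signals normalised to baseline and to non-cleaving reference variants were fit to one- or two-exponential decays, giving kobs. kcat and KM came from weighted Michaelis–Menten fits across concentrations.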

glucosamine-6-phosphate [2] = variants of: B1; experiment: KM; higher = weaker cofactor use; RNA array
Procedure, shortened: as §1

glucosamine-6-phosphate [3] = variants of: B1; experiment: self-cleavage kobs at 40 uM GlcN6P; higher = faster cleavage; RNA array
Procedure, shortened: as §1

glucosamine-6-phosphate [4] = variants of: B1; experiment: self-cleavage kobs at 160 uM GlcN6P; higher = faster cleavage; RNA array
Procedure, shortened: as §1

glucosamine-6-phosphate [5] = variants of: B1; experiment: self-cleavage kobs at 640 uM GlcN6P; higher = faster cleavage; RNA array
Procedure, shortened: as §1

glucosamine-6-phosphate [6] = variants of: B1; experiment: self-cleavage kobs at 2500 uM GlcN6P; higher = faster cleavage; RNA array
Procedure, shortened: as §1

glucosamine-6-phosphate [7] = variants of: B1; experiment: self-cleavage kobs at 10000 uM GlcN6P; higher = faster cleavage; RNA array
Procedure, shortened: as §1

Row | Variant | kcat (glucosamine-6-phosphate [1]) | KM (glucosamine-6-phosphate [2]) | self-cleavage kobs at 40 uM GlcN6P (glucosamine-6-phosphate [3]) | self-cleavage kobs at 160 uM GlcN6P (glucosamine-6-phosphate [4]) | self-cleavage kobs at 640 uM GlcN6P (glucosamine-6-phosphate [5]) | self-cleavage kobs at 2500 uM GlcN6P (glucosamine-6-phosphate [6]) | self-cleavage kobs at 10000 uM GlcN6P (glucosamine-6-phosphate [7])
1 | AUAAAAGCGCCAGAACUACAGAAAUGUAGUUGACGAGGAGGAGGUGUAUCGAAUUUUCGGCGGAUGUCUCCAAA | 0.00338 ± 0.0012 s⁻¹ | 1200 ± 590 µM | 0.000125 ± 1.7e-05 s⁻¹ | 0.000317 ± 5.3e-05 s⁻¹ | 0.00143 ± 0.00015 s⁻¹ | 0.00176 ± 0.00028 s⁻¹ | 0.00457 ± 0.00079 s⁻¹
2 | AUAAAAGCGCCAGAACUACAGAAAUGUAGUUGACGAGGAGGAGGUGUAUCGAAUUUUCGGCGGAUGGCUCCAAA | 0.000343 ± 3.5e-05 s⁻¹ | 1360 ± 310 µM | 2.99e-05 ± 1.3e-05 s⁻¹ | 2.86e-05 ± 8.4e-06 s⁻¹ | 0.000112 ± 1.1e-05 s⁻¹ | 0.000241 ± 2.8e-05 s⁻¹ | 0.000295 ± 2.3e-05 s⁻¹
3 | AUAAAAGCGCCAGAACUACAGAAAUGUAGUUGACGAGGAGGAGGUGUAUCGAUUUUUCGGCGGAUGCCUCCAAA | 0.006 ± 0.0013 s⁻¹ | 2190 ± 770 µM | 0.000116 ± 2.4e-05 s⁻¹ | – | 0.00141 ± 0.00032 s⁻¹ | 0.00253 ± 0.00059 s⁻¹ | 0.00566 ± 0.00098 s⁻¹
4 | AUAAAAGCGCCAGAACUACAGAAAUGUAGUUGACGAGGAGGAGGUGUAUCGAAUUUUCGGCGGAUACCUGCAAA | 0.000845 ± 0.00032 s⁻¹ | – | 6.36e-05 ± 1.7e-05 s⁻¹ | – | 0.000267 ± 6.1e-05 s⁻¹ | 0.00046 ± 0.00016 s⁻¹ | 0.000907 ± 0.00016 s⁻¹
5 | AUAAAAGCGCCAGAACUACAGAAAUGUAGUUGACGAGGAGGAGGUGUAUCGAAUUUUCUGCGGAUGCCUCCAAA | < 1e-05 s⁻¹ | – | < 1e-05 s⁻¹ | – | < 1e-05 s⁻¹ | – | –
6 | AUAAAAGCGCCAGAACUACAGAAAUGUAGUUGACGAGGAGGAGGUGUAUCGAAUUUUCGGCGGAUUCCUCCAAA | 0.000756 ± 0.00014 s⁻¹ | 2360 ± 740 µM | – | 3.38e-05 ± 1.2e-05 s⁻¹ | 0.000177 ± 2.9e-05 s⁻¹ | 0.000448 ± 8e-05 s⁻¹ | 0.000578 ± 8.8e-05 s⁻¹
7 | AUAAAAGCGCCAGAACUACAGAAAUGUAGUUGACGAGGAGGAGGUGUAUCGUAUUUUCGGCGGAUGCCUCCAAA | 0.000165 ± 1.2e-05 s⁻¹ | – | < 1e-05 s⁻¹ | < 1e-05 s⁻¹ | – | 2.87e-05 ± 1.3e-05 s⁻¹ | 7.51e-05 ± 2.1e-05 s⁻¹
8 | AUAAAAGCGCCAGAACUACAGAAAUGUAGUUGACGAGGAGGAGGUGUUUCGAAUUUUCGGCGGAUGCCUCCAAA | 0.00014 ± 2.4e-05 s⁻¹ | – | – | – | 3.53e-05 ± 1.4e-05 s⁻¹ | 0.000128 ± 2.5e-05 s⁻¹ | 0.000117 ± 1.6e-05 s⁻¹
9 | AUAAAAGCGCCAGAACUACAGAAAUGUAGUUGACGAGGAGGAGGUGUAUCGAAUUUUCGGCGGAUUUCUCCAAA | 0.000249 ± 2.4e-05 s⁻¹ | 804 ± 230 µM | – | – | 0.000128 ± 3e-05 s⁻¹ | 0.000172 ± 6.1e-05 s⁻¹ | 0.00023 ± 3.9e-05 s⁻¹
10 | AUAAAAGCGCCAGAACUACAGAAAUGUAGUUGACGAGGAGGAGGUGUAUCGAAUUUUCGGCGGAUGCCUCAAAA | 0.00159 ± 0.00031 s⁻¹ | 935 ± 350 µM | 5.65e-05 ± 1.3e-05 s⁻¹ | – | 0.000943 ± 0.00016 s⁻¹ | 0.000985 ± 0.00028 s⁻¹ | 0.00143 ± 0.00019 s⁻¹
11 | AUAAAAGCGCCAGAACUACAGAAAUGUAGUUGACGAGGAGGAGGUGUAUCGAAUUUUCGGCGGAUGCCUCGAAA | 0.000535 ± 0.00017 s⁻¹ | – | 4.15e-05 ± 1.4e-05 s⁻¹ | 5.99e-05 ± 1.8e-05 s⁻¹ | 0.000392 ± 7.6e-05 s⁻¹ | 0.000849 ± 0.00013 s⁻¹ | 0.000435 ± 5.5e-05 s⁻¹
12 | AUAAAAGCGCCAGAACUACAGAAAUGUAGUUGACGAGGAGGAGGUGUAUCGAAUUUUCGGCGGAUGCCUCUAAA | 0.00721 ± 0.0015 s⁻¹ | 1750 ± 550 µM | 0.00018 ± 1.7e-05 s⁻¹ | 0.000349 ± 8.8e-05 s⁻¹ | 0.00219 ± 0.00026 s⁻¹ | 0.00497 ± 0.00059 s⁻¹ | 0.00576 ± 0.00058 s⁻¹
13 | AUAAAAGCGCCAGAACUACAGAAAUGUAGUUGACGAGGAGGAGGUGUAUCGAAUUUUGGGCGGAUGCCUCCAAA | 2.68e-05 ± 1.4e-06 s⁻¹ | 892 ± 260 µM | – | < 1e-05 s⁻¹ | – | – | 2.44e-05 ± 1.2e-05 s⁻¹
14 | AUAAAAGCGCCAGAACUACAGAAAUGUAGUUGACGAGGAGGAGGUGUAUCGAAUUUUAGGCGGAUGCCUCCAAA | 0.000164 ± 4e-05 s⁻¹ | – | < 1e-05 s⁻¹ | – | – | 3.08e-05 ± 1.2e-05 s⁻¹ | 8.21e-05 ± 1.1e-05 s⁻¹
